{
  "source": "paper PMC10245715",
  "about": "(bioRxiv, 2023)",
  "binders": {"B1": {"name": "UBXD1 double mutant containing both the lariat and H4 changes, full-length (natural protein)", "chain": "MKKFFQEFKADIKFKSAGPGQKLKESVGEKAHKEKPNQPAPRPPRQGPTNEAQMAAAAALARLEQKQSRAWGPTQSRDVTQERIQNKAVLTEASGSPEAPGTNVVSEPREEGSAHLAVPGVYFTCPLTGATLRKDQRDACIKEAILLHFSTDPVAASIMKIYTFNKDQDRVKLGVDTIAKYLDNIHLHPEEEKYRKIKLQNKVFQERINCLEGTHEFFEAIGFQKVLLPAQDQEDPEEFYVLSETTLAQPQSLERHKEQLLAAEPVRAKLDRQRRVFQPSPLASQFELPGDFFNLTAERIKEEQRLESEAVRRLSVLRTKAMREKEEQRGLRKYNYTLLRVRLPDGCLLQGTFYARERLGAVYGFVREALQSDWLPFELLASGGQKLSEDENLALNECGLVPSALLTFSWDMAVLEDIKAAGAEPDSILKPELLSAIEKLL"}},
  "target": "p97 (valosin-containing protein, VCP), full-length, wildtype, human (human, UniProt P55072 1-806)",
  "sequence (P55072 whole entry)": "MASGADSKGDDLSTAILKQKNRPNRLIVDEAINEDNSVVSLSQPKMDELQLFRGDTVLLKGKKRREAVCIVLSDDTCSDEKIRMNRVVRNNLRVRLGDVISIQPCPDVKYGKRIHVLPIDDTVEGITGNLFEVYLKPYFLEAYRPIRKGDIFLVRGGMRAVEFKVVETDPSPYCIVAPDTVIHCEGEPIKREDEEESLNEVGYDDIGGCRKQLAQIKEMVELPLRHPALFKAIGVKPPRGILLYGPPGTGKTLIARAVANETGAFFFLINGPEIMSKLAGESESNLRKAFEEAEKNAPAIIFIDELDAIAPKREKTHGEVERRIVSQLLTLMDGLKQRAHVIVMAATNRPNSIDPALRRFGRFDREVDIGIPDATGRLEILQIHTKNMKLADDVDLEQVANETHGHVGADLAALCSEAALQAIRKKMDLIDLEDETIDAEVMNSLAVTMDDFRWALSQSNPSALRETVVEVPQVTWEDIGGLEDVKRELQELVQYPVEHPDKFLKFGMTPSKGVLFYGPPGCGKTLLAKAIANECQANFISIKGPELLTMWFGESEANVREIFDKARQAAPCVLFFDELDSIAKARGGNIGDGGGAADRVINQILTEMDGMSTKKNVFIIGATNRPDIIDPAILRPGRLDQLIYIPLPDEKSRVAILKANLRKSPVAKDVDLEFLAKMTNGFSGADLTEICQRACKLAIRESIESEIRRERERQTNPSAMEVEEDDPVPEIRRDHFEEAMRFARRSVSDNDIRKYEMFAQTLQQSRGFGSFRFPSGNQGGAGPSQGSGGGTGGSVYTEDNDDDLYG",
  "test": "SEC",
  "data": [
    {"binder": "B1", "values": [
      {"measurement": "binding result", "result": "binds"}
    ]}
  ]
}
